A word on the Kd: it is the equilibrium constant for the complex coming apart. For orientation: EC50 (read off the curve) means the midpoint of the concentration-response curve. High values mean a need for much substance, low ones an effect from little substance.

These results are taken from patent US20240034815A1 (Xencor, published 2024).

One assay has as its target T1, His-tagged human GPC3 (human, UniProt P51654 25-559, limits assumed).
T1 construct: Captured on HIS1K sensors in the Octet assay; also called human GPC3 antigen; Glypican 3; not shown: His tag
Description: Octet (BLI); His-tagged GPC3 captured on HIS1K sensors, bsAb in solution. As for the experimental part: After humanization, GPC3 binding arms were engineered with single point mutations in the variable light domain with the aim to create a ladder of GPC3 binding affinity, illustrative sequences for which are depicted in FIG. 13. 73 variable light domain variants were engineered and paired with GPC3-A H1.1 (see Example 3C for description of GPC3-A H1.1 variant). The GPC3-A variants were engineered in the 1+1 Fab-scFv-Fc bsAb format and binding for GPC3 antigen was measured using Octet, a BioLayer Interferometry (BLI)-based method. Experimental steps for Octet generally include the following: Immobilization (capture of ligand to a biosensor); Association (dipping of ligand-coated biosensors into wells containing the analyte); and Dissociation (returning of biosensors to well containing buffer). For ease of clinical development (e.g. by investigating the therapeutics in model animals), it is useful for the binding domains to be cross-reactive for cynomolgus antigen; therefore, binding to both human and cynomolgus GPC3 antigen were investigated. His-tagged human and cynomolgus GPC3 were captured on HIS1K sensors then dipped into multiple concentrations of the bispecific antibodies. The resulting dissociation constant (KD) are depicted in FIG. 23.
Background: In BLI a coated tip is dipped into the sample, and binding shifts an interference pattern.

The target in assay [1] is T2, cell surface GPC3 on GPC3-expressing cell lines (HepG2 GPC3^high, Huh7 GPC3^med) (UniProt P51654 25-554).
T2 construct: whole, on cells; The cell line of each entry is named in the assay or readout field; also called HepG2 (GPC3^high) cells; Huh7 (GPC3^med) cells
The experiment in a line: flow cytometry on HepG2 (GPC3high) cells, anti-human Fc secondary. As for the experimental part:
(§1) Next, binding of the variants to cell surface GPC3 was investigated. Illustrative affinity variants H1.1_L1.29, H1.1_L1.16, and H1.1_L1.31 were engineered in the 1+1 Fab-scFv-Fc format. […] Cells were then washed and stained with a secondary antibody (typically anti-human Fc AlexaFlour647) for 1 hr at 4° C. After 2 more washes, cells were analyzed by flow cytometry.
For orientation: Flow cytometry measures light scatter and fluorescence of single cells or particles in a stream.

For assay [2], the target named is T2, cell surface GPC3 on GPC3-expressing …. The experiment in a line: flow cytometry on HepG2 (GPC3high) cells, secondary antibody stain. Here is the method: as §1

T2 sequence (P51654 25-554 limits assumed): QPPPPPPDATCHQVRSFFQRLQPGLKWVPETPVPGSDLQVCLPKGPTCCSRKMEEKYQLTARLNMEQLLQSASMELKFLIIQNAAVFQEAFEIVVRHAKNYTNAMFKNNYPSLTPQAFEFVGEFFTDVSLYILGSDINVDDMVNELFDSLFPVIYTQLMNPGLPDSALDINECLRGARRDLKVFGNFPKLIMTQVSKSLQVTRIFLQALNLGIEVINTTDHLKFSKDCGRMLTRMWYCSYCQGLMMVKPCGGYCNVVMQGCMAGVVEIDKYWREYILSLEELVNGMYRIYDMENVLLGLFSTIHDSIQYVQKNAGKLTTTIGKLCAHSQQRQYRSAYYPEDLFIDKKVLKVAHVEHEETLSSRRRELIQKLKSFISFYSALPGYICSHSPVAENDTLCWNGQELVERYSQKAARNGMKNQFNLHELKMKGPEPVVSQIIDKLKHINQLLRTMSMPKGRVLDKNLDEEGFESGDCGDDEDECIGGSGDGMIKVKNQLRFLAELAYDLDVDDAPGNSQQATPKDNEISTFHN
T1 sequence (P51654 25-559 limits assumed): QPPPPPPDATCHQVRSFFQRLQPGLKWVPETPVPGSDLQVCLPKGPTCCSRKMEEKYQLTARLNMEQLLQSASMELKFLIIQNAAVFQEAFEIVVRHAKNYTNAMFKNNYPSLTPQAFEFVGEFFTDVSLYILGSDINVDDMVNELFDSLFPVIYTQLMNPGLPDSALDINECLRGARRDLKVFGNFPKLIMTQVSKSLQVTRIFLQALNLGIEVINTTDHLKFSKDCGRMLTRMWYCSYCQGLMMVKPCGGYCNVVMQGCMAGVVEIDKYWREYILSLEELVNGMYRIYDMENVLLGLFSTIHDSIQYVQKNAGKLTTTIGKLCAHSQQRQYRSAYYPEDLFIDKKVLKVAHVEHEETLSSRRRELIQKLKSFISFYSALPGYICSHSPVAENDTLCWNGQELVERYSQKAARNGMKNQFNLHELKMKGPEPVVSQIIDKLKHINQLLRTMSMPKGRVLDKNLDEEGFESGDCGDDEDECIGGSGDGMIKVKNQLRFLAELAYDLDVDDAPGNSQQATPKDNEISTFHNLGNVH

B1: XENP36140 (GPC3-A H1.1_L1.31 formatted as 1+1 Fab-scFv-Fc with CD3 High-Int #1 scFv) (bispecific antibody)
heavy: QVQLVQSGAEVKKPGASVKVSCKASGYTFTDYEMHWVRQAPGQGLEWMGALEPKTGDTAYSQKFQGRVTMTADKSISTAYMELSRLRSDDTAVYYCTRFYSYTYWGQGTLVTVSSASTKGPSVFPLAPSSKSTSGGTAALGCLVKDYFPEPVTVSWNSGALTSGVHTFPAVLQSSGLYSLSSVVTVPSSSLGTQTYICNVNHKPSDTKVDKKVEPKSCDKTHTCPPCPAPPVAGPSVFLFPPKPKDTLMISRTPEVTCVVVDVKHEDPEVKFNWYVDGVEVHNAKTKPREEEYNSTYRVVSVLTVLHQDWLNGKEYKCKVSNKALPAPIEKTISKAKGQPREPQVYTLPPSREEMTKNQVSLTCDVSGFYPSDIAVEWESDGQPENNYKTTPPVLDSDGSFFLYSKLTVDKSRWEQGDVFSCSVMHEALHNHYTQKSLSLSPGK
scFv-Fc: not shown
light: DVVMTQSPLSLPVTLGQPASISCRSSQSLVHSNGNTYLHWYQQRPGQSPRLLIYYVSNRFSGVPDRFSGSGSGTDFTLKISRVEAEDVGVYFCSQNTHVPPTFGSGTKLEIKRTVAAPSVFIFPPSDEQLKSGTASVVCLLNNFYPREAKVQWKVDNALQSGNSQESVTEQDSKDSTYSLSSTLTLSKADYEKHKVYACEVTHQGLSSPVTKSFNRGEC
notes: 1+1 Fab-scFv-Fc, human IgG1 heterodimeric backbone; treated as one molecule; also called [GPC3]H1.1_L1.31
In the assay with His-tagged human GPC3, B1 gave a Kd of 400 nM. In addition, the “EC50 (read off the curve)” value in assay [1] and in assay [2] was roughly 3 µg/mL throughout.
